Assay results from patent US20160166638A1, “LACTOFERRIN-OSTEOPONTIN-IRON COMPLEX” (NESTEC S.A., priority 2013, published 2016).

Assay: Colour change of iron fortified strawberry-banana yoghurt after flash pasteurization (CIELAB colorimetry)
Type: physicochemical
Settings: colour difference vs yoghurt with no iron salts; Jogolino Strawberry/Banana yoghurt, approx. 0.8 mg iron per 100 g; flash pasteurized at 105° C. for 2 minutes
Description: Commercial yoghurt, Nestlé Jogolino™ Strawberry/Banana yoghurt containing 15% banana puree and 10% strawberry puree, was iron fortified by the addition of different iron containing materials to 5 kg yoghurt as reported in the table below. The amounts were chosen to provide approximately 0.8 mg iron per 100 g yoghurt. A 100 g serving of yoghurt with that level of iron would provide 15% of the recommended daily amount of iron for an infant [Official Journal of the European Union, Commission Directive 2006/125/EC].
For the lactoferrin-osteopontin-iron complex (Trial B), the powder from Example 1 was added to yoghurt at a level of 28 g per 5 kg yoghurt. The resulting yoghurt composition comprised 5.6 g powder per kg which is 4 g LF-OPN-Fe complex per kg.
The yoghurts were flash pasteurized at 105° C. for 2 minutes. Colour measurements were performed in 1×1 cm polystyrene cuvettes using an X-Rite ColorEye 7000A colorimeter. The colorimeter was set up with a D65 light source, 10 degree observer angle and with specular component included. The colour difference between the yoghurt with no iron salts and the iron fortified yoghurt was measured for each iron salt and expressed as ΔEab* using the CIELAB colour scale.

B1: Lactoferrin-Fe: Lactoferrin obtained from Armor proteins, supplied with some iron complexed to it; comparison fortificant (protein, UniProt P24627 20-708, looked up)
Lactotransferrin: APRKNVRWCTISQPEWFKCRRWQWRMKKLGAPSITCVRRAFALECIRAIAEKKADAVTLDGGMVFEAGRDPYKLRPVAAEIYGTKESPQTHYYAVAVVKKGSNFQLDQLQGRKSCHTGLGRSAGWIIPMGILRPYLSWTESLEPLQGAVAKFFSASCVPCIDRQAYPNLCQLCKGEGENQCACSSREPYFGYSGAFKCLQDGAGDVAFVKETTVFENLPEKADRDQYELLCLNNSRAPVDAFKECHLAQVPSHAVVARSVDGKEDLIWKLLSKAQEKFGKNKSRSFQLFGSPPGQRDLLFKDSALGFLRIPSKVDSALYLGSRYLTTLKNLRETAEEVKARYTRVVWCAVGPEEQKKCQQWSQQSGQNVTCATASTTDDCIVLVLKGEADALNLDGGYIYTAGKCGLVPVLAENRKSSKHSSLDCVLRPTEGYLAVAVVKKANEGLTWNSLKDKKSCHTAVDRTAGWNIPMGLIVNQTGSCAFDEFFSQSCAPGADPKSRLCALCAGDDQGLDKCVPNSKEKYYGYTGAFRCLAEDVGDVAFVKNDTVWENTNGESTADWAKNLNREDFRLLCLDGTRKPVTEAQSCHLAVAPNHAVVSRSDRAAHVKQVLLHQQALFGKNGKNCPDKFCLFKSETKNLLFNDNTECLAKLGGRPTYEEYLGTEYVTAIANLKKCSTSPLLEACAFLTR
modifications: iron complex
notes: Lactoferrin obtained from Armor proteins, supplied with some iron complexed to it; comparison fortificant
  ΔEab*: 5.64
